For 1 protein, Km and kcat results are on record in article PMC8060482, “Identification of an Invertase With High Specific Activity for Raffinose Hydrolysis and Its Application in Soymilk Treatment” (Frontiers in Microbiology, 2021).

What all share (test): released glucose by glucose oxidase method; Michaelis-Menten fit
Common to all, as to type: biochemical, Microbacterium trichothecenolyticum

Substrate in data set [1]: OC[C@H]1O[C@H](OC[C@H]2O[C@H](OC[C@H]3O[C@H](O[C@]4(CO)O[C@H](CO)[C@@H](O)[C@@H]4O)[C@H](O)[C@@H](O)[C@@H]3O)[C@H](O)[C@@H](O)[C@H]2O)[C@H](O)[C@@H](O)[C@H]1O
Conditions: 50 mM citrate-phosphate pH 6.5, 35 °C, 5 min.

Substrate in data set [2]: OC[C@H]1O[C@@](CO)(O[C@H]2O[C@H](CO)[C@@H](O)[C@H](O)[C@H]2O)[C@@H](O)[C@@H]1O
To be noted: 50 mM citrate-phosphate pH 6.5, 35 °C, 5 min, enzyme printed as rInvDz13.

Substrate in data set [3]: OC[C@H]1O[C@H](OC[C@H]2O[C@H](O[C@]3(CO)O[C@H](CO)[C@@H](O)[C@@H]3O)[C@H](O)[C@@H](O)[C@@H]2O)[C@H](O)[C@@H](O)[C@H]1O
To be noted: 50 mM citrate-phosphate pH 6.5, 35 °C, 5 min.

In general, Km refers to the concentration of substrate that gives half-maximal velocity.

B1: InvDz13 (Microbacterium trichothecenolyticum) (protein)
chain: APVAPAAPELQDGPQPTAHTQQAYAPEDDFTAKWTRADARQLKRLSDPTAGSKQNSMPTELTMPAVAQDFPDMSNEQVWVWDSWPLTDENANQYSVNGQEIIFSLVADRNLVFDERHVFAKIGYFYRPAGVPADERPENGGWTYGGLVFDEGVTGKIFPDQSYSHQTQWSGSARISKGGQIKLFFTDVAFYRNEDGSNRKPYDPRIALSVGKVHANKNGVKLTGFDKVTDLLQADGTYYQTGAQNEFFNFRDPFTFEDPAHPGETYMVFEGNSAMPRETATCNEEDLGYREGDPFAESVEQVNASGATYQIGNVGLAKAKNKDLTEWEFLPPLLSANCVTDQTERPQIYMKDGKYYLFTISHRGTFANGIDGPEGVYGFVGDGIRSDYQPMNSGSGLALGNPTNLNFAGGQPFAPDFNQPIGHFQAYSHYVMPGGLVQSFIDTVGTEGDFRRGGTLAPTVKIDIDGASSAVDYAYGDGGLGGYADIPANINVNPGGKVTPLP
notes: natively purified from culture supernatant of strain Dz13 (DEAE-Sepharose, Sephacryl S100); precursor 537 aa, predicted signal peptide 1-35 (secreted enzyme); kinetics of sucrose printed once as rInvDz13, but no recombinant expression described
For the protein B1, the figures for the Km in data set [1], in data set [2] and in data set [3] were 65.2 ± 3.07 mM, 4.5 ± 0.2 mM and 14.2 ± 0.7 mM, respectively. Further, the kcat amounted to 2368.3 ± 7.1 s^–1 in data set [1], 504 ± 0.1 s^–1 in data set [2] and 3944 ± 15.3 s^–1 in data set [3].
